Columns and labels:
[1] = system: tet-on competent MLL/AF9+Nras AML; assay: Pooled negative selection RNAi screening (deep sequencing); type: cell-based, mouse; conditions: deep sequencing reads, On Dox compared to T0
Excerpt: (§1) In addition to the analysis of single shRNAs for inhibitory effects in vitro and in vivo, the combination of tet-on competent cancer models and tet-regulatable shRNA expression vectors allowing for monitoring shRNA expression through fluorescent and other reporter genes (e.g. TRMPV and derivates) facilitates pooled shRNA negative selection screening (FIG. 37). In such approaches a pool of over 1,000 shRNAs are retrovirally transduced into tet-on competent cancer models (here MLL/AF9+Nras AML) and selected for shRNA containing cells by either drug selection (e.g. G418) or fluorescence-activated cell sorting (FACS). Selected cell populations harboring a library of shRNAs then can be cultured in the absence or presence of doxycyline (off dox and on dox, respectively) or injected into syngeneic recipient mice that are either treated with doxycyline or left untreated.
(§2) The representation of each shRNA within the pool can be effectively assessed by deep sequencing of shRNA cassettes in a given cell population. For this, genomic DNA is extracted from leukemia cells containing the shRNA pool, and the shRNA guide or passenger strand (21-22 target gene specific nucleotides of the shRNA) by PCR using primers specific for common sequences flanking the gene specific part of the shRNA (e.g. miR30 19 nt loop and miR30 common 3′ sequence). The primers also contain 5′-adapters required for deep sequencing (e.g. for Illumina/Solexa sequencing primers are p5+mir3: 5′-[…]-3′ (SEQ ID NO: 215) and p7+Loop: 5′-[…]-3′ (SEQ ID NO: 216)). Deep sequencing is subsequently performed using a primer binding the flanking nucleotide sequence next to the target gene specific part of the shRNA (for Illumina/Solexa platforms the primer is mir30EcoR1Seq: 5′-TAGCCCCTTGAATTCCGA GGCAGTAGGCA-3′ (SEQ ID NO: 217)).
(§3) The use of shRNA vectors that allow for monitoring of shRNA expression through fluorescent and other reporter genes (e.g. TRMPV) in combination with tet-on competent mouse models facilitates the isolation of pure shRNA expressing cell populations (e.g. by FACS, for TRMPV by sorting of Venus/dsRed double positive cells (FIG. 38). This selection of shRNA expressing cells prior to DNA isolation strongly reduces the background caused by cell populations with insufficient shRNA induction, which are predicted to contain genomic representation of the whole shRNA library without shRNA specific shifts in representation. The final readout is based on the comparison of shRNA representation (i.e. deep sequencing read numbers) before the assay (t0) or from cell populations left without doxycycline treatment (off dox) to those where shRNA were induced and cells subsequently sorted for shRNA expressing cells (on dox). shRNA with inhibitory effects are predicted to loose representation (show less reads) on dox compared to t0 and off dox.
(§4) This pooled is RNAi screening strategy can be applied to rapidly survey inhibitory effects of large pools of shRNAs (˜1000 at a time) in different tet-on competent cancer models and normal control cells (FIG. 39). For example, a pool of 1166 shRNAs targeting 836 predominantly druggable genes associated with MLL fusion proteins in human leukemia and mouse models of MLL/AF9-induced AML (MLL cure library) was analyzed in pooled negative selection screening in tet-on competent MLL/AF9+Nras AML and immortalized murine embryonic fibroblasts (Mef) in parallel. To establish and validate this screening approach, the pool also contained 64 control shRNAs each of which have been previously analyzed for inhibitory effects in both AML cells and Mefs using the same experimental system (FIG. 40).
(§5) After pooling of 1166 experimental and 64 control shRNAs the presence of shRNAs was verified by deep sequencing of shRNAs within the plasmid vector pool (FIG. 41). […]

[2] = system: immortalized murine embryonic fibroblasts (Mef); assay: as above; type: cell-based; conditions: deep sequencing reads, on dox compared to initial representation
Excerpt: as §1, §2, §3, §4, §5

Molecule	Fold depletion in AML [1]	Fold depletion in Mef [2]
Pdgfrb.1028: shRNA, SEQ ID NO: 163 (nucleic acid) TGCTGTTGACAGTGAGCGAAACGACCATGGCGATGAGAAATAGTGAAGCCACAGATGTATTTCTCATCGCCATGGTCGTTCTGCCTACTGCCTCGGA	16.16 Fold	2.15 Fold
Rbks.337: shRNA, SEQ ID NO: 172 (nucleic acid) TGCTGTTGACAGTGAGCGAAGCCTCCATAATTGTCAATAATAGTGAAGCCACAGATGTATTATTGACAATTATGGAGGCTGTGCCTACTGCCTCGGA	17.02 Fold	1.07 Fold
Htatip2.575: shRNA, SEQ ID NO: 133 (nucleic acid) TGCTGTTGACAGTGAGCGACAGCAGTTTCTTATACCTACATAGTGAAGCCACAGATGTATGTAGGTATAAGAAACTGCTGGTGCCTACTGCCTCGGA	15.74 Fold	1.08 Fold
Cdc42ep1.317: shRNA, SEQ ID NO: 103 (nucleic acid) TGCTGTTGACAGTGAGCGCCTAGCAGTTGTAAGCAATCAATAGTGAAGCCACAGATGTATTGATTGCTTACAACTGCTAGTTGCCTACTGCCTCGGA	14.91 Fold	1.47 Fold
Nrp1.2022: shRNA, SEQ ID NO: 154 (nucleic acid) TGCTGTTGACAGTGAGCGACACAAGGTTCATCAGGATCTATAGTGAAGCCACAGATGTATAGATCCTGATGAACCTTGTGGTGCCTACTGCCTCGGA	13.60 Fold	1.80 Fold
Pgam1.1811: shRNA, SEQ ID NO: 164 (nucleic acid) TGCTGTTGACAGTGAGCGCAAGGAGTGATGTGCAATACTTTAGTGAAGCCACAGATGTAAAGTATTGCACATCACTCCTTTTGCCTACTGCCTCGGA	20.18 Fold	0.17 Fold
Wnt10b.1717: shRNA, SEQ ID NO: 190 (nucleic acid) TGCTGTTGACAGTGAGCGCCTCGAATAGACTAAGATGAAATAGTGAAGCCACAGATGTATTTCATCTTAGTCTATTCGAGTTGCCTACTGCCTCGGA	15.69 Fold	1.35 Fold
EG408196.85: shRNA, SEQ ID NO: 116 (nucleic acid) TGCTGTTGACAGTGAGCGCAGCGAGAACCAGTGAGAAATATAGTGAAGCCACAGATGTATATTTCTCACTGGTTCTCGCTTTGCCTACTGCCTCGGA	20.79 Fold	0.25 Fold
Casp1.248: shRNA, SEQ ID NO: 100 (nucleic acid) TGCTGTTGACAGTGAGCGCCAGTGAGTATAGGGACAATAATAGTGAAGCCACAGATGTATTATTGTCCCTATACTCACTGATGCCTACTGCCTCGGA	16.16 Fold	3.84 Fold
Nmur1.7: shRNA, SEQ ID NO: 152 (nucleic acid) TGCTGTTGACAGTGAGCGCCTGCAATATCAGTGAGTTCAATAGTGAAGCCACAGATGTATTGAACTCACTGATATTGCAGATGCCTACTGCCTCGGA	19.45 Fold	2.58 Fold
Myo7a.618: shRNA, SEQ ID NO: 149 (nucleic acid) TGCTGTTGACAGTGAGCGCCCGCCAGTACACCAACAAGAATAGTGAAGCCACAGATGTATTCTTGTTGGTGTACTGGCGGATGCCTACTGCCTCGGA	14.79 Fold	4.42 Fold
Ctbs.796: shRNA, SEQ ID NO: 110 (nucleic acid) TGCTGTTGACAGTGAGCGCCCCACAGAGCATCTCACTAAATAGTGAAGCCACAGATGTATTTAGTGAGATGCTCTGTGGGTTGCCTACTGCCTCGGA	19.44 Fold	0.19 Fold
Aspa.996: shRNA, SEQ ID NO: 92 (nucleic acid) TGCTGTTGACAGTGAGCGCATGAAGCTGCATATTATGAAATAGTGAAGCCACAGATGTATTTCATAATATGCAGCTTCATTTGCCTACTGCCTCGGA	13.25 Fold	0.68 Fold
Dio2.2087: shRNA, SEQ ID NO: 112 (nucleic acid) TGCTGTTGACAGTGAGCGCCAGGAATTTGGTTAAATGGAATAGTGAAGCCACAGATGTATTCCATTTAACCAAATTCCTGTTGCCTACTGCCTCGGA	20.52 Fold	2.52 Fold
Rgs6.896: shRNA, SEQ ID NO: 173 (nucleic acid) TGCTGTTGACAGTGAGCGCCAAGTGAAGATTGACCGGAAATAGTGAAGCCACAGATGTATTTCCGGTCAATCTTCACTTGTTGCCTACTGCCTCGGA	14.33 Fold	1.99 Fold
Trpm4.2813: shRNA, SEQ ID NO: 188 (nucleic acid) TGCTGTTGACAGTGAGCGACAAGATTGTCATAGTGAGCAATAGTGAAGCCACAGATGTATTGCTCACTATGACAATCTTGGTGCCTACTGCCTCGGA	20.52 Fold	2.33 Fold
Centd3.3993: shRNA, SEQ ID NO: 107 (nucleic acid) TGCTGTTGACAGTGAGCGCCTGGACCACAAGCATCCTTAATAGTGAAGCCACAGATGTATTAAGGATGCTTGTGGTCCAGTTGCCTACTGCCTCGGA	13.37 Fold	1.77 Fold
Klrb1b.845: shRNA, SEQ ID NO: 136 (nucleic acid) TGCTGTTGACAGTGAGCGCCAGATTCTTCATTGTATAAATTAGTGAAGCCACAGATGTAATTTATACAATGAAGAATCTGTTGCCTACTGCCTCGGA	9.74 Fold	0.43 Fold
S100a9.148: shRNA, SEQ ID NO: 177 (nucleic acid) TGCTGTTGACAGTGAGCGCCAGACAAATGGTGGAAGCACATAGTGAAGCCACAGATGTATGTGCTTCCACCATTTGTCTGATGCCTACTGCCTCGGA	13.18 Fold	2.68 Fold
Lima1.3235: shRNA, SEQ ID NO: 138 (nucleic acid) TGCTGTTGACAGTGAGCGAACGGACATTGTACCCAGATAATAGTGAAGCCACAGATGTATTATCTGGGTACAATGTCCGTCTGCCTACTGCCTCGGA	16.44 Fold	0.56 Fold
Pde1b.2027: shRNA, SEQ ID NO: 162 (nucleic acid) TGCTGTTGACAGTGAGCGCTGCCTCCAAGTTTCTAAGCAATAGTGAAGCCACAGATGTATTGCTTAGAAACTTGGAGGCAATGCCTACTGCCTCGGA	15.12 Fold	1.31 Fold

Source: patent publication US8895526B2, “Identification of RNAI targets and use of RNAI for rational therapy of chemotherapy-resistant leukemia and other cancers” (Cold Spring Harbor Laboratory, priority 2009, dated 2014)
